Common to all, as to experiment: ITC; protein dialysed into 100 mM NaCl, 25 mM Tris-HCl (pH 8.0), 10 uM ZnCl2, 2 mM beta-mercaptoethanol; histone peptides with free PHD or PHD-HD1 complex; one-site model
Assay [1] deals with dPHD-HD1 complex (Drosophila Pygo PHD 747-808 with Lgs HD1 316-350) (Drosophila) (UniProt Q9V9W8).
Assay [2] addresses hPygo1 PHD finger (amino acids 333-402), free (human) (UniProt Q9Y3Y4).
Assay [3] addresses hPHD-HD1 complex (hPygo1 PHD 333-402 with hBCL9 HD1) (human) (UniProt Q9Y3Y4).

dPHD-HD1 complex (Drosophila Pygo PHD 747-808 with Lgs HD1 316-350) (Drosophila), sequence (Q9V9W8 747-808, chain 1 of 2): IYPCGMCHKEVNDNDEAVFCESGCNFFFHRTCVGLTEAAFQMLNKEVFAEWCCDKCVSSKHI
dPHD-HD1 complex (Drosophila Pygo PHD 747-808 with Lgs HD1 316-350) (Drosophila), sequence (Q961D9 316-350, chain 2 of 2, further chain): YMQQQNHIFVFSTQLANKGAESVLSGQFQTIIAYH
hPygo1 PHD finger (amino acids 333-402), free (human), sequence (Q9Y3Y4 333-402): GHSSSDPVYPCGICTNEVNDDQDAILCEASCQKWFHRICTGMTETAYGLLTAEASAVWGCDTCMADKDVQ
hPHD-HD1 complex (hPygo1 PHD 333-402 with hBCL9 HD1) (human), sequence (Q9Y3Y4 333-402, chain 1 of 2): as the sequence (Q9Y3Y4 333-402) above
hPHD-HD1 complex (hPygo1 PHD 333-402 with hBCL9 HD1) (human), sequence (O00512 177-205, chain 2 of 2, further chain): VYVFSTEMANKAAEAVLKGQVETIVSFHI

Turning to “H3K4me1 15-mer histone H3 tail peptide (from UniProt P68431 2-16)”, the dissociation constant (Kd) came out at 22 µM in assay [1], 9 µM in assay [2] and 2900 nM in assay [3].
For “H3K4me2 15-mer histone H3 tail peptide (from UniProt P68431 2-16)”, in that order: 13 µM, 2.4 µM and 900 nM.
For “H3K4me3 15-mer histone H3 tail peptide (from UniProt P68431 2-16)”, in assay [1], the Kd turned out to be 23 µM. That is a double-digit micromolar value.

Source of the values: publication PMC2726290, “Decoding of Methylated Histone H3 Tail by the Pygo-BCL9 Wnt Signaling Complex” (Molecular Cell, 2008).
